Assay results from ChEMBL document CHEMBL3734689, “Enzyme kinetics and inhibition of histone acetyltransferase KAT8” (Eur J Med Chem, 2015).

Experiments:
Conditions in all cases: Homo sapiens
[1] = compound: CCCCCCCCCCCCCCCc1cccc(O)c1C(=O)O; experiment: Uncompetitive inhibition of recombinant N-terminal His6-tagged KAT8 (unknown origin) expressed in Escherichia Coli BL21 DE3 cells assessed as Vmax for acetyl coenzyme A at 80 uM
[2] = compound: CCCCCCCCCCCCCCCc1cccc(O)c1C(=O)O; experiment: Inhibition of recombinant N-terminal His6-tagged KAT8 (unknown origin) expressed in Escherichia Coli BL21 DE3 cells assessed as Vmax for histone H4 peptide at 80 uM
[3] = compound: CCCCCCCCCCCCCCCc1cccc(O)c1C(=O)O; experiment: Uncompetitive inhibition of recombinant N-terminal His6-tagged KAT8 (unknown origin) expressed in Escherichia Coli BL21 DE3 cells assessed as Vmax for acetyl coenzyme A at 240 uM
[4] = compound: CCCCCCCCCCCCCCCc1cccc(O)c1C(=O)O; experiment: Inhibition of recombinant N-terminal His6-tagged KAT8 (unknown origin) expressed in Escherichia Coli BL21 DE3 cells assessed as Vmax for histone H4 peptide at 240 uM
[5] = compound: CCCCCCCCCCCCCCCc1cccc(O)c1C(=O)O; experiment: Uncompetitive inhibition of recombinant N-terminal His6-tagged KAT8 (unknown origin) expressed in Escherichia Coli BL21 DE3 cells assessed as Km for acetyl coenzyme A at 160 uM
[6] = compound: CCCCCCCCCCCCCCCc1cccc(O)c1C(=O)O; experiment: Uncompetitive inhibition of recombinant N-terminal His6-tagged KAT8 (unknown origin) expressed in Escherichia Coli BL21 DE3 cells assessed as Vmax for acetyl coenzyme A at 160 uM
[7] = compound: CCCCCCCCCCCCCCCc1cccc(O)c1C(=O)O; experiment: Uncompetitive inhibition of recombinant N-terminal His6-tagged KAT8 (unknown origin) expressed in Escherichia Coli BL21 DE3 cells assessed as Km for acetyl coenzyme A at 240 uM
[8] = compound: CCCCCCCCCCCCCCCc1cccc(O)c1C(=O)O; experiment: Uncompetitive inhibition of recombinant N-terminal His6-tagged KAT8 (unknown origin) expressed in Escherichia Coli BL21 DE3 cells assessed as Km for acetyl coenzyme A at 80 uM
[9] = compound: CCCCCCCCCCCCCCCc1cccc(O)c1C(=O)O; experiment: Inhibition of recombinant N-terminal His6-tagged KAT8 (unknown origin) expressed in Escherichia Coli BL21 DE3 cells assessed as Vmax for histone H4 peptide at 160 uM

B1: Histone acetyltransferase KAT8 (Homo sapiens), Q9H7Z6 (protein)
chain: MAAQGAAAAVAAGTSGVAGEGEPGPGENAAAEGTAPSPGRVSPPTPARGEPEVTVEIGETYLCRRPDSTWHSAEVIQSRVNDQEGREEFYVHYVGFNRRLDEWVDKNRLALTKTVKDAVQKNSEKYLSELAEQPERKITRNQKRKHDEINHVQKTYAEMDPTTAALEKEHEAITKVKYVDKIHIGNYEIDAWYFSPFPEDYGKQPKLWLCEYCLKYMKYEKSYRFHLGQCQWRQPPGKEIYRKSNISVYEVDGKDHKIYCQNLCLLAKLFLDHKTLYFDVEPFVFYILTEVDRQGAHIVGYFSKEKESPDGNNVACILTLPPYQRRGYGKFLIAFSYELSKLESTVGSPEKPLSDLGKLSYRSYWSWVLLEILRDFRGTLSIKDLSQMTSITQNDIISTLQSLNMVKYWKGQHVICVTPKLVEEHLKSAQYKKPPITVDSVCLKWAPPKHKQVKLSKK
Vmax [1]: 12 pmol/min
Vmax [2]: 12 pmol/min
Vmax [3]: 6.1 pmol/min
Vmax [4]: 12 pmol/min
Km [5]: 1.9 µM
Vmax [6]: 9.2 pmol/min
Km [7]: 1 µM
Km [8]: 2.4 µM
Vmax [9]: 12 pmol/min
